Series [1] is described as follows: Hypoglycemia monitoring after insulin lispro injection. The note with it: 1.5 or 2.0 U s.c. abdomen, 12 participants, three tests each. The class given is in vivo, healthy Japanese adult males.
Details of series [2]: species or system healthy Japanese adult males. To be noted: in vivo.
The conditions of series [3]: 0.025‐U/kg dose; cited from earlier work.

In the case of insulin lispro, in series [1], the “participants who developed severe hypoglycemia (<50 mg/dL)” value is listed as “None”. For the same substance, in series [2], the “Bioequivalence of AUC0–∞” value was “bioequivalent”, the “Bioequivalence of Cmax” value is “bioequivalent” and the “Bioequivalence of Tmax” value is listed as “bioequivalent”. For the same substance, in series [3], the “half‐life” value is 53 min and the “time to the maximum insulin concentration (Tmax)” value is recorded as “approximately 37 min”.

Source of the values: publication PMC4015666 (Journal of Diabetes Investigation, 2013).
